The chains are these.
B1: Nuclear factor of activated T-cells, cytoplasmic 1 (Homo sapiens), O95644 (parent)
chain: MPSTSFPVPSKFPLGPAAAVFGRGETLGPAPRAGGTMKSAEEEHYGYASSNVSPALPLPTAHSTLPAPCHNLQTSTPGIIPPADHPSGYGAALDGGPAGYFLSSGHTRPDGAPALESPRIEITSCLGLYHNNNQFFHDVEVEDVLPSSKRSPSTATLSLPSLEAYRDPSCLSPASSLSSRSCNSEASSYESNYSYPYASPQTSPWQSPCVSPKTTDPEEGFPRGLGACTLLGSPRHSPSTSPRASVTEESWLGARSSRPASPCNKRKYSLNGRQPPYSPHHSPTPSPHGSPRVSVTDDSWLGNTTQYTSSAIVAAINALTTDSSLDLGDGVPVKSRKTTLEQPPSVALKVEPVGEDLGSPPPPADFAPEDYSSFQHIRKGGFCDQYLAVPQHPYQWAKPKPLSPTSYMSPTLPALDWQLPSHSGPYELRIEVQPKSHHRAHYETEGSRGAVKASAGGHPIVQLHGYLENEPLMLQLFIGTADDRLLRPHAFYQVHRITGKTVSTTSHEAILSNTKVLEIPLLPENSMRAVIDCAGILKLRNSDIELRKGETDIGRKNTRVRLVFRVHVPQPSGRTLSLQVASNPIECSQRSAQELPLVEKQSTDSYPVVGGKKMVLSGHNFLQDSKVIFVEKAPDGHHVWEMEAKTDRDLCKPNSLVVEIPPFRNQRITSPVHVSFYVCNGKRKRSQYQRFTYLPANVPIIKTEPTDDYEPAPTCGPVSQGLSPLPRPYYSQQLAMPPDPSSCLVAGFPPCPQRSTLMPAAPGVSPKLHDLSPAAYTKGVASPGHCHLGLPQPAGEAPAVQDVPRPVATHPGSPGQPPPALLPQQVSAPPSSSCPPGLEHSLCPSSPSPPLPPATQEPTCLQPCSPACPPATGRPQHLPSTVRRDESPTAGPRLLPEVHEDGSPNLAPIPVTVKREPEELDQLYLDDVNEIIRNDLSSTSTHS

Variants of B1 are the subject of this assay. To be noted: with jak3_human JAK3, P52333.
Sequence of jak3_human JAK3, P52333 (P52333 whole entry): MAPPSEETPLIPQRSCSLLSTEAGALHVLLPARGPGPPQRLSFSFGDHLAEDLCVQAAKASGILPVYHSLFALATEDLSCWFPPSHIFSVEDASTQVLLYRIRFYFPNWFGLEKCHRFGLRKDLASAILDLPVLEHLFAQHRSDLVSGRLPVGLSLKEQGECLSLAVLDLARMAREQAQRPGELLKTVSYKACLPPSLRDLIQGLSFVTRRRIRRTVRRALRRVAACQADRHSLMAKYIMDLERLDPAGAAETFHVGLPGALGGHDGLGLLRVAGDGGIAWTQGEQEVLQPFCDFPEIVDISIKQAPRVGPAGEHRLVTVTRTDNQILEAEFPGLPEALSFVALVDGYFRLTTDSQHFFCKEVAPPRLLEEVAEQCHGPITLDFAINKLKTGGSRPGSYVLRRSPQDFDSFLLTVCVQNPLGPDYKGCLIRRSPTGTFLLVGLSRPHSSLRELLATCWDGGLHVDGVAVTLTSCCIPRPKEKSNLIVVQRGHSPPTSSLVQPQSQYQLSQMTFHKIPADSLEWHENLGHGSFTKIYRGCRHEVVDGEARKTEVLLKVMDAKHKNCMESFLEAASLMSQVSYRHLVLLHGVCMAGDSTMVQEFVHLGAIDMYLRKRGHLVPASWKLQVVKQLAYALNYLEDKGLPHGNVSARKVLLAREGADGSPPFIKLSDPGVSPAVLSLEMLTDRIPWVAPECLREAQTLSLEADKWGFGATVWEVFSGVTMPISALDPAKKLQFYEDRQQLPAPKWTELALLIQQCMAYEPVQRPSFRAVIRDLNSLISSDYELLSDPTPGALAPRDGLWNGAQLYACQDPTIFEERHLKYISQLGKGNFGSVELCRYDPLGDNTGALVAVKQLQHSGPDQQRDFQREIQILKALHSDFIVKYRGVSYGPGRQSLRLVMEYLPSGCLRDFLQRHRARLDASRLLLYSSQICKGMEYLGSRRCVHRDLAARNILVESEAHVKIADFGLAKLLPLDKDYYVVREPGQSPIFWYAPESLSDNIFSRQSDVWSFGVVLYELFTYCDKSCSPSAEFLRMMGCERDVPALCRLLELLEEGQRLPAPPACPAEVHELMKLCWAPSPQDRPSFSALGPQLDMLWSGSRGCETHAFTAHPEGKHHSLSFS
Y371A: the “effect of a mutation on the interaction” value is listed as “disrupting interaction”.

The values are drawn from IntAct's records for PubMed 23263556.
